# According to patent publication US6090388:
# Like-named read-outs stand apart in the source and are kept apart here.
# Experiments:
# [1] = molecular target: gp120 of HIV-1 primary isolate UG029 (clade A) (HIV-1)
# [2] = molecular target: gp120 of HIV-1 primary isolate TH036 (clade E) (HIV-1)
# [3] = molecular target: gp120 of HIV-1 primary isolate ZIM 748 (clade C) (HIV-1)
# [4] = molecular target: gp120 of HIV-1 primary isolate VL 135 (clade B) (HIV-1)
# [5] = molecular target: gp120 of HIV-1 primary isolate UG266 (clade D) (HIV-1)
# [6] = molecular target: human CD4 on the surface of CD4-expressing T cells (human); experiment: B4-biotin + FITC-avidin on MT2 T cells after medium alone
# [7] = molecular target: human CD4 on the surface of CD4-expressing T cells (human); experiment: IFA on MT2 T cells
# [8] = molecular target: human CD4 on the surface of CD4-expressing T cells (human)
# [9] = molecular target: human CD4 on the surface of CD4-expressing T cells (human); remark: listed apart in the source
substance,measurement,setting,value
recombinant human monoclonal antibody IgG1 b12,"90% neutralization, MT-2 microplaque assay, HIV-1 UGO29",[1],38.5 µg/mL
same,"90% neutralization, MT-2 microplaque assay, HIV-1 TH036",[2],> 50 µg/mL
same,"90% neutralization, MT-2 microplaque assay, HIV-1 ZIM 748",[3],> 50 µg/mL
same,"90% neutralization, MT-2 microplaque assay, HIV-1 VL 135",[4],41.7 µg/mL
same,"90% neutralization, MT-2 microplaque assay, HIV-1 UG266",[5],> 50 µg/mL
monoclonal antibody B4,% Pos cells,[6],> 95%
same,% Pos cells,[7],> 95%
same,% Pos cells,[8],0%
same,"90% neutralization, MT-2 microplaque assay, HIV-1 DH12 (clade B)",[9],2.1 µg/mL
same,"90% neutralization, MT-2 microplaque assay, HIV-1 TH036 (clade E)",[9],3.32 µg/mL
same,"90% neutralization, MT-2 microplaque assay, HIV-1 UG266 (clade D)",[9],25.6 µg/mL
same,"90% neutralization, MT-2 microplaque assay, HIV-1 UGO29 (clade A)",[9],6.76 µg/mL
same,"90% neutralization, MT-2 microplaque assay, HIV-1 VL 135 (clade B)",[9],1.54 µg/mL
same,"90% neutralization, MT-2 microplaque assay, HIV-1 ZIM 748 (clade C)",[9],2.82 µg/mL
